Source: publication PMC8899589, “Anti-PD-L1 peptide-conjugated prodrug nanoparticles for targeted cancer immunotherapy combining PD-L1 blockade with immunogenic cell death” (Theranostics, 2022)
Residues, ends and D or L forms follow the SMILES beside them. *: point of attachment. Doxorubicin(3'-N) = COc1cccc2c1C(=O)c1c(O)c3c(c(O)c1C2=O)C[C@@](O)(C(=O)CO)C[C@@H]3O[C@H]1C[C@H](N*)[C@H](O)[C@H](C)O1

Columns and labels:
[1] = tested on: PD-L1 in IFN-γ-treated 4T1 cells; assay: PD-L1 expression by western blot; assay type: cell-based; details: 4T1 cells pre-treated with IFN-γ 20 ng/mL 24 h, then 2 μM for 24 h
Method: PD-L1 expression in 4T1 cells after different treatment was analyzed via western blot. Briefly, 1 × 10^6 4T1 cells were seeded in 6-well cell culture plates with RPMI medium containing 10% FBS and 1% antibiotics. After 24 h of stabilization, the cells were pre-treated with IFN-γ (20 ng/mL) for 24 h and further incubated with equal molar dose (2 μM) of free DOX, PD-NPs, anti-PD-L1 antibody or anti-PD-L1 peptide ([…]) for 24 h. Then, each cell was solubilized with lysis buffer containing 1% protease inhibitors, and the lysates were centrifuged at 10,000 rpm for 15 min to remove cell debris. Proteins in lysates were quantified via BCA protein quantification kit (Thermo Fisher scientific, USA), and then separated by sodium dodecyl sulfate-polyacrylamide (SDS-PAGE) gel electrophoresis and transferred onto polyvinylidene difluoride (PVDF) membranes. Membranes were incubated with TBS-T containing 5% bovine serum albumin (BSA) for 50 min to block non-specific IgG binding and incubated with anti-mouse PD-L1 primary antibody ([…]) for 12 h at 4 °C. Then, membranes were further incubated with HRP-conjugated anti-rabbit IgG antibody for 90 min at room temperature. Finally, immunoreactive bands were observed via enhanced chemiluminescence (ECL) system.

[2] = tested on: 4T1 cells; assay: cytotoxicity, CCK-8 assay; assay type: cell-based; details: 4T1, HUVEC and H9C2 cells, 24 h treatment
Method: (§1) The cytotoxicity of PD-NPs was assessed by cell counting kit-8 (CCK-8) assays. First, 1 x 10^4 4T1, HUVEC, H9C2, BMDMs, BMDCs or CD8^+ T cells were seeded in 96-well cell culture plates. After 24 h of stabilization, the PD-NPs or free DOX were treated with each cell for 24 h. Then, the cells were further incubated with culture medium containing CCK-8 solution (10%) for 20 min, and cell viability was measured by a microplate reader with 450 nm of wavelength (VERSAmaxTM; Molecular Devices Corp., USA).

[3] = tested on: 4T1 tumor-bearing mice; assay: in vivo tumor inhibition; set-up: species or system mouse; details: once every three days; DOX or PD-NPs i.v. 3 mg/kg based on DOX contents, antibody i.p. 10 mg/kg; saline 1655.9 ± 319.94
Method: (§2) 4T1 tumor-bearing mice were randomly divided into four groups: (i) saline; (ii) free DOX; (iii) free DOX with anti-PD-L1 antibody; and (iv) PD-NPs. Then, mice were treated once every three days, with free DOX or PD-NPs (3 mg/kg based on DOX contents), at which time tumor volumes had reached 60 - 80 mm^3. The anti-PD-L1 antibody (10 mg/kg) was i.p. injected simultaneously with free DOX into mice. Antitumor efficacy was assessed by measuring tumor volumes, calculated as largest diameter x smallest diameter^2 x 0.53, every 2 days. For the analysis of antitumor immune responses, tumor tissues were collected on day 7, and single cells were isolated from tumor tissues using a Tumor Dissociation Kit. Following cell counting, the single cells were incubated with FcBlock at 37 °C for 5 min to avoid non-specific antibody binding. Then, multi-parameter staining was performed for 40 min to assess the following populations in tumor tissues; (i) PD-L1^+ cancer cells (CD45^-PD-L1^+); (ii) CRT^+ cancer cells (CD45^-CRT^+); (iii) CD8^+ T cells (CD45^+CD3^+CD8^+); and (iv) regulatory T cells (Tregs; CD45^+CD3^+CD4^+CD25^+). In order to assay the concentration of cytokines in the tumor microenvironment, the IFN-γ and TNF-α in the tumor supernatants were assessed using commercialized ELISA assay kits (Catalog # SMIF00 and SMTA00B, respectively, R&D systems).

[4] = tested on: 4T1 tumor-bearing mice; assay: survival analysis; assay type: in vivo, mouse; details: treated once every three days; saline group 18 days
Method: as §2, with “Then, multi-parameter staining was performed for 40 min to assess the following populations in tumor tissues; (i) PD-L1^+ cancer cells (CD45^-PD-L1^+); (ii) CRT^+ cancer cells (CD45^-CRT^+); (iii) CD8^+ T cells (CD45^+CD3^+CD8^+); and (iv) regulatory T cells (Tregs; CD45^+CD3^+CD4^+CD25^+).” left out
The statistical significance between two groups was analyzed using Student's t-test. One-way analysis of variance (ANOVA) was performed for comparisons of more than two groups, and multiple comparisons were analyzed using Tukey-Kramer post-hoc test. Survival data was plotted as Kaplan-Meier curves and analyzed using log-rank test. […]

[5] = tested on: 4T1 tumor-bearing mice; assay: toxicity study (body weight, blood analyses); assay type: in vivo, mouse; details: for blood analyses, hematological parameters (AST, ALT, BUN, CK, WBC, NEUT, LYMP): blood collected on day 16, treated once every three days; for body weights during treatment: treated once every three days
Method: The in vivo toxicity of PD-NPs was assessed by hematological analyses. Briefly, free DOX or PD-NPs (3 mg/kg based on DOX contents) were intravenously injected once every three days, and anti-PD-L1 antibody (10 mg/kg) was simultaneously i.p. injected into mice. Then, blood samples were collected from mice on day 16. For complete blood counts (CBCs), each blood sample was mixed with EDTA and a portion of each blood sample was centrifuged at 1,000 xg for 20 min, and then supernatants were stored at 4 °C. The following factors in blood samples were measured; aspartate transaminase (AST), alanine aminotransferase (ALT), blood urea nitrogen (BUN), creatinine kinase-MB (CK-MB), white blood cell (WBC), neutrophil (NEUT) and lymphocytes (LYMP).

[6] = biological target: T1, cathepsin B (Homo sapiens, UniProt P07858); assay: enzyme cleavage assay, HPLC; assay type: in vitro ADME
T1 construct: purchased R&D systems
Method: The purity and molecular weight were analyzed using HPLC and matrix-assisted laser desorption/ionization time of flight mass spectrometer (MALDI-TOF, AB Sciex TOF/TOF 5800 System, USA) with cyano-4-hydroycinnamic acid (CHCA) matrix, respectively. The average size of PD-NPs in saline (1 mg/mL) was determined via dynamic light scattering (DLS; Zetasizer Nano ZS Malvern Instruments, UK). The morphology of nanoparticles in distilled water (1 mg/mL) was observed by transmission electron microscope (TEM; CM-200, USA). As a control, the cathepsin B-cleaved PD-NPs were also observed using TEM, wherein PD-NPs (1mg/mL) were pre-incubated with cathepsin B (10 μg) at 37 °C for 24 h. Enzyme cleavage assays were performed by incubating PD-NPs (10 μM) with cathepsin B, cathepsin D, cathepsin E, caspase-3 and caspase-9 (10 μg) in MES buffer (0.1 M, pH 5.5). As a control experiment, PD-NPs (10 μM) were also pre-incubated with irreversible cathepsin B inhibitor (Z-FA-FMK; 50 μΜ) in MES buffer and then further incubated with cathepsin B. Enzyme reaction buffer was analyzed by HPLC using an acetonitrile: H2O gradient from 20:80 (0 min) to 80:20 (20 min). In vitro drug release from the PD-NPs was further investigated under both physiological and enzymatic conditions. For these analyses, PD-NPs dispersed in the mouse serum (1 mg/mL) were loaded in membrane (Molecular weight cut off: 2000 Da; Dialysis membrane Spectra/Por® 7 MWCO 2000, 18 mm; Carl Roth, Karlsruhe, Germany) in the presence or absence of cathepsin B enzyme (10 μg). After incubation, peptide-DOX or free DOX released to the outer membrane was analyzed using HPLC. Fluorescence profiles of PD-NPs (10 μM) in saline was analyzed by fluorescence spectrophotometer (F-7000, Hitachi).

[7] = tested on: T lymphocytes; assay: cytotoxicity against immune cells, CCK-8 assay; assay type: cell-based, mouse; details: 24 h treatment, P < 0.001
Method: as §1

[8] = tested on: DCs; assay: cytotoxicity against immune cells, CCK-8 assay; assay type: cell-based, mouse; details: 24 h treatment, P < 0.001
Method: (§3) 4T1 ([…]), HUVEC (human umbilical vein endothelial cells) and H9C2 (rat BDIX heart myoblasts) cells were maintained in RPMI-1640, Endothelial cell growth medium (EGM) or Dulbecco's Modified Eagle Medium (DMEM) supplemented with 10% (v/v) fetal bovine serum (FBS), 1% streptomycin and 100 U/mL penicillin, respectively. Bone marrow-derived macrophages (BMDMs) and bone marrow-derived dendritic cells (BMDCs) were prepared by isolating bone marrow cells from BALB/c mice. Then, bone marrow cells were differentiated into BMDMs by incubating with M-CSF (Macrophage colony-stimulating factor, 20 ng/mL) for 7 days, or were differentiated into BMDCs by culturing for 7 days in the presence of GM-CSF (20 ng/mL), IL4 (20 ng/mL) and 0.1% β-mercaptoethanol. After isolation, BMDMs and BMDCs were maintained in RPMI-1640 medium supplemented with 10% (v/v) FBS, 1% streptomycin, and 100 U/mL penicillin.
(§4) The cytotoxicity of PD-NPs was assessed by cell counting kit-8 (CCK-8) assays. First, 1 x 10^4 4T1, HUVEC, H9C2, BMDMs, BMDCs or CD8^+ T cells were seeded in 96-well cell culture plates. […] Then, the cells were further incubated with culture medium containing CCK-8 solution (10%) for 20 min, and cell viability was measured by a microplate reader with 450 nm of wavelength (VERSAmaxTM; Molecular Devices Corp., USA).

[9] = tested on: macrophages; assay type: cell-based, mouse
Method: as §3, §4

[10] = tested on: 4T1 tumor-bearing mice; assay: biodistribution by NIRF imaging; assay type: in vivo, mouse; details: 24 h after injection, 3 mg/kg based on DOX contents
Method: The 6-week female BALB/c mice were purchased from NaraBio (Gyeonggi-do, Republic of Korea). Mice were bred under pathogen-free conditions in the Korea Institute of Science and Technology (KIST). All experiments with animals were performed in compliance with the relevant laws and institutional guidelines of Institutional Animal Care and Use Committee (IACUC; approved number of 2020-123) in Korea Institute of Science and Technology (KIST). The in vivo biodistribution of PD-NPs was assessed in 4T1 tumor-bearing mice, which were prepared by subcutaneous inoculation of 1 x 10^7 4T1 cells. […] Noninvasive near-infrared fluorescence (NIRF) imaging was performed using an IVIS Lumina Series III system (PerkinElmer; Waltham, MA, USA) after 1, 6 and 24 h of injection. Fluorescence intensity in tumor regions was quantified using a Living Image software (PerkinElmer; Waltham, MA, USA). For ex vivo fluorescence imaging, mice were sacrificed after 24 h of injection, followed by extraction of liver, lung, spleen, kidney, heart and tumor tissues. Fluorescence intensity in tissues was analyzed using an IVIS Lumina Series III system. […] Slide-mounted tumor sections were stained with APC fluorescent dye-conjugated CD31 or PD-L1 antibody at 4 °C for 12 h, after which tumor tissues were analyzed using a Leica TCS SP8 confocal laser-scanning microscope.

Structure (SMILES) | PD-L1 expression [1] | cytotoxicity in three types of cells [2] | tumor volume on day 16 [3] [mm^3] | median survival [4] [days] | blood analyses, hematological parameters (AST, ALT, BUN, CK, WBC, NEUT, LYMP) [5] | body weights during treatment [5] | cleavage by cathepsin B ([6]; cathepsin B 10 μg, pH 5.5 MES buffer, 0, 6, 12 and 24 h, HPLC) | cleaved by cathepsin B ([6]; 10 μM, cathepsin B 10 μg, MES buffer 0.1 M pH 5.5, 6 h post-incubation, HPLC) | cleavage in cathepsin B-suppressed condition ([6]; cathepsin B with irreversible inhibitor Z-FA-FMK 50 μM, MES buffer pH 5.5, HPLC) | cytotoxicity compared to free DOX [7] | cytotoxicity compared to free DOX [8] | cytotoxicity compared to free DOX [9] | accumulation in the liver tissues versus free DOX ([10]; ex vivo NIRF imaging) | accumulation at tumor tissues compared to free DOX ([10]; i.v., NIRF)
COc1cccc2c1C(=O)c1c(O)c3c(c(O)c1C2=O)C[C@@](O)(C(=O)CO)C[C@@H]3O[C@H]1C[C@H](N)[C@H](O)[C@H](C)O1.Cl [free DOX, Doxorubicin hydrochloride] | further increased | indiscriminate cytotoxicity with similar IC50 | 1028.73 ± 218.15 | 20 | severe cardiac, renal and hepatic toxicity | severe body weight loss | – | – | – | – | – | – | – | –
COc1cccc2c1C(=O)c1c(O)c3c(c(O)c1C2=O)C[C@@](O)(C(=O)CO)C[C@@H]3O[C@H]1C[C@H](NC(=O)CNC(=O)[C@H](CCCNC(=N)N)NC(=O)CNC(=O)[C@H](Cc2ccccc2)NC(=O)[C@H](CCCNC(=N)N)NC(=O)[C@@H](NC(=O)[C@H](CCCNC(=N)N)NC(=O)[C@H](C)NC(=O)[C@H](CCCNC(=N)N)NC(=O)[C@@H](NC(=O)[C@H](CS)NC(C)=O)C(C)C)[C@@H](C)O)[C@H](O)[C@H](C)O1 [CVRARTR-FGRG-DOX] (Ac-CVRARTRFGRG-{Doxorubicin(3'-N)}) | – | – | – | – | – | – | not cleaved | – | – | – | – | – | – | –
COc1cccc2c1C(=O)c1c(O)c3c(c(O)c1C2=O)C[C@@](O)(C(=O)CO)C[C@@H]3O[C@H]1C[C@H](NC(=O)CNC(=O)[C@H](CCCNC(=N)N)NC(=O)[C@H](CCCNC(=N)N)NC(=O)[C@H](Cc2ccccc2)NC(=O)[C@H](CCCNC(=N)N)NC(=O)[C@@H](NC(=O)[C@H](CCCNC(=N)N)NC(=O)[C@H](C)NC(=O)[C@H](CCCNC(=N)N)NC(=O)[C@@H](NC(=O)[C@H](CS)NC(C)=O)C(C)C)[C@@H](C)O)[C@H](O)[C@H](C)O1 [PD-NPs] (Ac-CVRARTRFRRG-{Doxorubicin(3'-N)}) | – | – | – | – | in normal range | gradually increased | – | approximately 99% | not cleaved | significantly reduced | significantly reduced | significantly reduced | significantly higher accumulation | 4.01-4.48 times
